Test results published in patent publication US20180155432A1 (INSTITUT NATIONAL DE LA RECHERCHE SCIENTIFIQUE, published 2018).

Target: T1, recombinant human galectin-1 (human, UniProt P09382 2-135)
T1 construct: Used as the galectin selectivity control; also called hGal-1; Gal-1
Test: solid phase fluorescent binding assay; galectin coated at 10 µg/ml, streptavidin R-phycoerythrin detection
Experimental: Recombinant hGal-7 or hGal-1 (10 μg/mL) was coated overnight at 4° C. on black, flat bottom, 96-well polystyrene microplates (Ultident®, Montreal, QC, Canada). Thereafter, the plate was blocked with Reagent diluent (PBS-BSA 1%) for 1h, then incubated with unlabeled hGal-7₍₁₂₉₋₁₃₅₎ (cold) for 60 min and finally incubated with biotin-labeled [Ah⁰]hGal-7₍₁₂₉₋₁₃₅₎ for 2h. Lastly, Streptavidin R-phycoerythrin (1/500, Jackson Immunoresearch®, West Grove, Pa., USA) was applied to samples for 30 min. All incubations were performed at room temperature and the washes between incubations were done with 20 mM potassium phosphate buffer pH 7.1. The plate was read by a Tecan® Infinite M1000 PRO microplate reader at excitation and emission wavelengths of 488 nm and 670 nm, respectively.

T1 sequence (P09382 2-135 limits assumed): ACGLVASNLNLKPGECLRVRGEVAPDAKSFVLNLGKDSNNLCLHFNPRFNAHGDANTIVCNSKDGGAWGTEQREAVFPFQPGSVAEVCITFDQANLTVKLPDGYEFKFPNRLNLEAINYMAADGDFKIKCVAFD

binding result: no binding
B1: biotin-labeled [Ahx0]hGal-7(129-135) (peptide)
peptide: LDSVRIF
HELM: PEPTIDE1{[O=C1N[C@H]2[C@H](CS[C@H]2CCCCC(=O)[*:2])N1].[O=C(CCCCCN[*:1])[*:2]].L.D.S.V.R.I.F.[am]}$$$$V2.0
SMILES: CC[C@H](C)[C@H](NC(=O)[C@H](CCCNC(=N)N)NC(=O)[C@@H](NC(=O)[C@H](CO)NC(=O)[C@H](CC(=O)O)NC(=O)[C@H](CC(C)C)NC(=O)CCCCCNC(=O)CCCC[C@@H]1SC[C@@H]2NC(=O)N[C@@H]21)C(C)C)C(=O)N[C@@H](Cc1ccccc1)C(N)=O
